Reference: US20150050213A1, “COMPOSITIONS AND METHODS FOR IMAGING INFLAMMATION OF TRAUMATIC BRAIN INJURY” (University of Virginia Patent Foundation, priority 2013, published 2015)

Key:
[1] = molecular target: T1, neutrophil N-formylpeptide receptor (Homo sapiens, UniProt P21462); details: reported in the literature; cited from earlier work
T1 sequence (P21462 1-350): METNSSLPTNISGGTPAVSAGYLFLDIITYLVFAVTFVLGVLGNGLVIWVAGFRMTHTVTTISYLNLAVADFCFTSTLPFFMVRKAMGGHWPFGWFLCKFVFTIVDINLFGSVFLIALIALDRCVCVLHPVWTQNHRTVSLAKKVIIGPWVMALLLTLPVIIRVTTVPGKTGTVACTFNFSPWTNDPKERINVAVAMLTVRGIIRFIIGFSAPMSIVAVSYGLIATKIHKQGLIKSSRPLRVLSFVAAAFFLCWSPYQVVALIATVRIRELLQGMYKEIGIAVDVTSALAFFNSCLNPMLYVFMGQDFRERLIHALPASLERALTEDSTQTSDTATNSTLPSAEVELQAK

[2] = reported; poor imaging quality due to lipophilicity; cited from earlier work
FPR = molecular target: T2, FPR (Homo sapiens, UniProt P21462); details: human neutrophils; Locke et al. 2009; cited from earlier work
T2 construct: endogenous in cells; host or cells: human neutrophils
T2 sequence (P21462 1-350): T1 sequence (P21462 1-350)

infiltrating neutrophils [3] = assay: neutrophil co-localization immunohistochemistry after CCI TBI; assay type: in vivo; details: CCI TBI rats, 12 hours post-injury
Description: Neutrophil co-localization: Rats underwent CCI injury as described above and were immediately injected with cFLFLF-PEG-Cy5 through a tail vein catheter. Animals were sacrificed 12 hours post-injection and perfused with 200 cc of a 10% sucrose wash and 200 cc of 4% paraformaldehyde. After four hours, animals were perfused with a 30% sucrose cryoprotectant. Brains were then removed and sectioned at a thickness of […]. Sections were incubated in rabbit anti-rat neutrophil elastase (abcam 21595) at a dilution of 1:200 overnight at 4° C. Next, sections were washed three times in PBS and then incubated in alexa fluor 488 goat anti-rabbit antibody at a 1:200 dilution at room temperature for two hours. Sections were washed three times in PBS. Vectashield mounting medium with DAPI was applied to each section with a cover slip. Slides were assessed with a Zeiss Axioimager Z1 microscope equipped with the Apotome module. Photomicrographs were acquired using the Zeiss Zen 2011 software (FIG. 2).

[4] = molecular target: T3, neutrophil receptor (formyl peptide receptor, FPR) (Homo sapiens, UniProt P21462); details: human neutrophils; Zhang et al. 2007; cited from earlier work
T3 construct: endogenous in cells; host or cells: human neutrophils
T3 sequence (P21462 1-350): T1 sequence (P21462 1-350)

infiltrating neutrophils [5] = tested on: infiltrating neutrophils; design: species or system Sprague-Dawley rats; details: rat, in vivo
Description: Sprague-Dawley rats (N=3/experimental group) underwent moderate-severe experimental controlled cortical impact (CCI) trauma brain injury (TBI) or SHAM preparation. Animals were sacrificed 12, 24, or 48 hours post-injury, a tail vein catheter was inserted 12 hr prior to sacrifice, and each animal received a 2 mCi dose of cFLFLF-PEG-^64Cu. Radiopharmaceutical was allowed to circulate for 12 hrs prior to sacrifice. Brains were removed and unfixed, […] frozen sections were collected on a Leica CM3050S cryostat. Sections were collected onto slides and placed on radiosensitive FujiFilm SR imaging plates for 12 hours. Each screen was read with a GE Typhoon FLA9000 phosphor imager at a pixel size of […]. Average intensity values from seven ROIs (FIG. 5B-5G) were measured from 20 brain sections that included the entirety of the contusion volume. Values were normalized to the corrected dose of radiation and animal body weight. Average intensity values of each ROI were compared to the contralateral anatomical region in each of the SHAM, 12, 24 hour, and 48 hour experimental groups. Phosphor imaging is a standard technique for determining whether a labeled ligand is suitable for PET imaging and positive results are an indicator that the labeled ligand is indeed useful for PET imaging.

neutrophils = details: superoxide stimulation assays; Locke et al.; cited from earlier work
[6] = mouse, in vivo; cited from earlier work

Row | Substance | affinity for the neutrophil N-formylpeptide receptor [1] | liver uptake [2] | Kd (FPR) | co-localization with neutrophil markers (infiltrating neutrophils [3]) | Kd [4] | post-injury time point of most prominent uptake (infiltrating neutrophils [5]) | time of statistically significant peak uptake, ratio ipsilateral to contralateral, caudate and putamen (infiltrating neutrophils [5]) | time of statistically significant peak uptake, ratio ipsilateral to contralateral, corpus callosum (infiltrating neutrophils [5]) | time of statistically significant peak uptake, ratio ipsilateral to contralateral, cortex (infiltrating neutrophils [5]) | time of statistically significant peak uptake, ratio ipsilateral to contralateral, hemisphere (infiltrating neutrophils [5]) | time of statistically significant peak uptake, ratio ipsilateral to contralateral, hippocampus (infiltrating neutrophils [5]) | uptake within cerebrospinal fluid (CSF) in the ventricles (infiltrating neutrophils [5]) | biologic activity toward neutrophils (neutrophils) | mean biologic half-life [6]
1 | cF(D)LF(D)LF [cFLFLF] | high affinity | high liver uptake | 2 nM | – | – | – | – | – | – | – | – | – | – | –
2 | cinnamoyl-F(D)LF(D)LFK-polyethylene glycol [cFLFLF-PEG] | – | – | – | localizes to infiltrating neutrophils within brain parenchyma | – | – | – | – | – | – | – | – | – | –
3 | cinnamoyl-F(D)LF(D)LFK-polyethylene glycol-DOTA-64Cu [cFLFLF-PEG-^64Cu] | – | – | 17.7 nM | – | 5.7 nM | 12 h | 12 h | 12 h | 12 and 24 hour | 12 h | 12 h | intense uptake | no biologic activity toward neutrophils | 55±8 min
